# Publication PMC6935267 (Cell Reports, 2019)
# B1: G2 Fab (Fab, V domains shown)
# VH: QVQLQQSGGELVKPGASVKLSCKTSGFTFSSSYISWLKQKPGQSLEWIAWIYAGTGGTEYNQKFTGKAQVTVDTSSSTAYMQFSSLTTEDSAIYYCARGGSSFAMDYWGQGTSVTVSS
# VL: not shown
# Target: T1, MERS-CoV S1-NTD (residues 1-351) with 8xHis-tag and Twin-Strep-tag (MERS-CoV (deposit 6PXH of this paper))
# T1 chain: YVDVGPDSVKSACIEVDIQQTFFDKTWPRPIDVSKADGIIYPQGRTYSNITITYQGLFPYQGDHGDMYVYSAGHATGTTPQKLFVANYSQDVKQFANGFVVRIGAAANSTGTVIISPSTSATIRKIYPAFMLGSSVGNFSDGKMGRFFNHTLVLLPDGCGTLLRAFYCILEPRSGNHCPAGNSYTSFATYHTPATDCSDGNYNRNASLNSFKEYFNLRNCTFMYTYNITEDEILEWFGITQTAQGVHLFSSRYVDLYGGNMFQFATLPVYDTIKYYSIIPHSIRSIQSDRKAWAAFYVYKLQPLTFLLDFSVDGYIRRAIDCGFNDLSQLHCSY
# Experiment: SPR
binder,measurement,value
B1,Kd,0.028 µM
